Data as given in paper doi:10.1101/2020.12.07.415216.

Biological target: SARS-CoV-2 RBD homotrimer (RBD appended onto a cystine-stabilized, hyperglycosylated GCN4 trimerization tag) (SARS-CoV-2)
Assay: SDS-PAGE under non-reducing conditions

SARS-CoV-2 RBD homotrimer (RBD appended onto a cystine-stabilized, hyperglycosylated GCN4 trimerization tag)
stoichiometry N: 3
